Results: article PMC8518580

Columns and labels:
Settings in all cases: EMSA: LightShift REMSA kit, 30 min, 25 °C, 5% native PAGE (buffer not given); MST: Monolith NT.115, RED-labelled NbeEF1A, labelling in PBS, temperature not …
[1] = system: NbeEF1A (eEF1A) (Nicotiana benthamiana); assay: MST
[2] = system: NbeEF1A (eEF1A) (Nicotiana benthamiana); assay: MST; remark: listed apart in the source
[3] = system: NbeEF1A (eEF1A) (Nicotiana benthamiana); assay: EMSA

CWMV RNA1 (+) 3'-UTR
Kd [1]: 7.32 nM

CWMV RNA2 (+) 3'-UTR
Kd [1]: 12.5 nM
Kd [2]: 6.51 nM

RNA1 3'-UTR del6730-6987
Kd [1]: 67.7 nM

RNA1 3'-UTR del6988-7147
Kd [1]: 964 nM

RNA2 3'-UTR dSL-1 (del3419-3429)
Kd [2]: 117 nM

RNA2 3'-UTR dSL-2 (del3469-3471)
Kd [2]: 91.7 nM

RNA2 3'-UTR dSL-3 (del3500-3503)
Kd [2]: 33.5 nM

RNA2 3'-UTR dSL-4 (del3505-3509)
Kd [2]: 113 nM

RNA2 3'-UTR dSL-5 (del3532-3535)
Kd [2]: 36 nM

RNA2 3'-UTR dSL-6 (del3561-3565)
binding signal (% of WT 3'-UTR) [3]: 6
Kd [2]: 998 nM

RNA2 3'-UTR del3174-3406
Kd [1]: 68.5 nM

RNA2 3'-UTR del3407-3569
Kd [1]: 997 nM
